From article PMC8294330, “A cooperative PNPase-Hfq-RNA carrier complex facilitates bacterial riboregulation”

T1: PNPase WT (Escherichia coli, UniProt P05055 1-711)
T1 sequence: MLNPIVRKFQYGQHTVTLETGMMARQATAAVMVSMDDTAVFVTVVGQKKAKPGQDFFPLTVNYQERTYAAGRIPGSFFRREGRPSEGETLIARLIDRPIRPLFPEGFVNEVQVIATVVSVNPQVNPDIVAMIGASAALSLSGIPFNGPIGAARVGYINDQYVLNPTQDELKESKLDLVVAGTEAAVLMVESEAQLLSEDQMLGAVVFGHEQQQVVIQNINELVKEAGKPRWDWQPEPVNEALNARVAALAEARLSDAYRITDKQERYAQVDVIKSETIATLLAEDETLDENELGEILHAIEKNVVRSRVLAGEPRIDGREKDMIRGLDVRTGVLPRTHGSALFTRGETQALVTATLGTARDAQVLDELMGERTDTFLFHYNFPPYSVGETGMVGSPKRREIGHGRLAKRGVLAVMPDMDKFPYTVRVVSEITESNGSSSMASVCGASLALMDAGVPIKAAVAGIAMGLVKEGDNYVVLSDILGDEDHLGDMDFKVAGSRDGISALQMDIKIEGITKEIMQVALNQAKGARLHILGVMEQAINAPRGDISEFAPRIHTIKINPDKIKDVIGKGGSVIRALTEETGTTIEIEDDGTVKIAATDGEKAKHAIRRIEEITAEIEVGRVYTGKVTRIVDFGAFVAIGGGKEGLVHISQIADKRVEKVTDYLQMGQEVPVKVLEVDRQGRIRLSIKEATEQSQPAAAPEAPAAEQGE


Key:
PNPase WT;Hfq [1] = molecular target: T2, PNPase WT;Hfq (Escherichia coli;Escherichia coli, UniProt P05055;P0A6X3 1-711;1-102, |); assay: cryo-EM; carrier complex; 50 RNA nt modelled; EMSA: 0.4 uM RNA, PNPase trimer 1:1 and 3:1 over RNA, 20 mM Tris pH 7.5, 100 mM NaCl, 1 mM MgCl2, 1 mM DTT, 30 C 20 min; native PAA gel with 10% glycerol, Tris-glycine pH 8.5; details: protein: recombinant;recombinant; tags: ;; chain copies: 3;6; single strand with hairpin
PNPase WT = molecular target: T1, PNPase WT; assay: cryo-EM; phosphorolytic mode; 8 RNA nt modelled; EMSA: 0.4 uM RNA, PNPase trimer 1:1 and 3:1 over RNA, 20 mM Tris pH 7.5, 100 mM NaCl, 1 mM MgCl2, 1 mM DTT, 30 C 20 min; native PAA gel with 10% glycerol, Tris-glycine pH 8.5; details: protein: recombinant; chain copies: 3; single strand with hairpin
PNPase WT;Hfq [2] = molecular target: T2, PNPase WT;Hfq; assay: cryo-EM; two stacked Hfq hexamers; EMSA: 0.4 uM RNA, PNPase trimer 1:1 and 3:1 over RNA, 20 mM Tris pH 7.5, 100 mM NaCl, 1 mM MgCl2, 1 mM DTT, 30 C 20 min; native PAA gel with 10% glycerol, Tris-glycine pH 8.5; details: protein: recombinant;recombinant; tags: ;; chain copies: 3;12; single strand

Binder | binding result (PNPase WT;Hfq [1]) | binding result (PNPase WT) | binding result (PNPase WT;Hfq [2])
3'ETSleuZ (structured_RNA) RNA: GGGAAAGAUAAGAAUAAAAUCAAAGCAAUAAGCAGUGUCGUGAAACCACCUUCGGGUGGUUUUUUU | binds | binds | 
CyaR (structured_RNA) RNA: GCUGAAAAACAUAACCCAUAAAAUGCUAGCUGUACCAGGAACCACCUCCUUAGCCUGUGUAAUCUCCCUUACACGGGCUUAUUUUUU |  |  | binds
